Data on twelve molecules can be found in patent US20260234242A1 (HAINAN SIMCERE ZAIMING PHARMACEUTICAL, published 2026).

Numbering of substitutions follows the chain as printed.

Sequences and labels used below:
T1: his-tagged human CDH6 extracellular region protein (hCDH6 ECD-his) (human, UniProt P55285 19-615)
T1 construct: also called Human CDH6-his; hCDH6-his; not shown: his tag
T1 sequence: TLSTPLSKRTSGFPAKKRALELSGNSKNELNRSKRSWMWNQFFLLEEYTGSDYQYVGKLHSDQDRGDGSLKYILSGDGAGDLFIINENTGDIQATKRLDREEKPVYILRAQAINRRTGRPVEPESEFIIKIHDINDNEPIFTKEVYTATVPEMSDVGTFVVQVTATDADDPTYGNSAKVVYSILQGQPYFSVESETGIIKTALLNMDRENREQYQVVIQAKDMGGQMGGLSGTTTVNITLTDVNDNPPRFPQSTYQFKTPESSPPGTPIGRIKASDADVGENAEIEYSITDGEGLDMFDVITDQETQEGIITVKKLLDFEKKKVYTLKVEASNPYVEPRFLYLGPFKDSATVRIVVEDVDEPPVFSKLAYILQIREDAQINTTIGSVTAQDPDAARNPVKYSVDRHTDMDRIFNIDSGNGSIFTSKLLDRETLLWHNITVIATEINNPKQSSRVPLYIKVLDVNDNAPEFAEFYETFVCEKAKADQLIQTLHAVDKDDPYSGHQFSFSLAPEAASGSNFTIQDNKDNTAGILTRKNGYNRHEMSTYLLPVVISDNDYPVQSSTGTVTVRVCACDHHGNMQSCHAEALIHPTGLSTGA

T2: human CDH6 on tumor cells (OVCAR3 cells, PA-1 cells) (human, UniProt P55285 54-790)
T2 sequence: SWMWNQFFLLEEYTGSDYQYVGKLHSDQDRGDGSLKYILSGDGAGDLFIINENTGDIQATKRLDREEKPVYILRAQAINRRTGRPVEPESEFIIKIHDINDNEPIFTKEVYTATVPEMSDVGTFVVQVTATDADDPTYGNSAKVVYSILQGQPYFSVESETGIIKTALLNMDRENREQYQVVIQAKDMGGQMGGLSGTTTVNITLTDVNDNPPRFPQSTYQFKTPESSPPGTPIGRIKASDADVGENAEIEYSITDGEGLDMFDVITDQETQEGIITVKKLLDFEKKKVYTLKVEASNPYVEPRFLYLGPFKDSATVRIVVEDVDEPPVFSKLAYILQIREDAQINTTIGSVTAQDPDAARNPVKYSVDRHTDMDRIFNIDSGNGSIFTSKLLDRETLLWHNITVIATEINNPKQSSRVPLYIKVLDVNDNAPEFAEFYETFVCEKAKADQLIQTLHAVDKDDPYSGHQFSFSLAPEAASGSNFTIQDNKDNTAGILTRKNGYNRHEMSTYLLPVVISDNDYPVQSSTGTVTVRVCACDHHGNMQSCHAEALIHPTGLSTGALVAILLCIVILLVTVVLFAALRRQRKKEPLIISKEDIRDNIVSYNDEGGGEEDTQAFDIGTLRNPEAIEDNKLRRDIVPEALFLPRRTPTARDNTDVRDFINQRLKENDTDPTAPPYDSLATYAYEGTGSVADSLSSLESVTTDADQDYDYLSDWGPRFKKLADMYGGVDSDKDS

B1: hCDH6-6-H1L3 (antibody, V domains shown)
VH: EVQLVQSGAEVKKPGASVKVSCKASGYTFTDYYMAWVRQAPGQGLEWMGYIFPNSGGTDYSQKFKGRVTMTVDKSTSTVYMELSSLRSEDTAVYYCARELGADYGDYYAMDHWGQGTTVTVSS
VL: DIQMTQSPSSLSASVGDRVTITCRASENIDSYLAWYQQKPGKSPQLLVYSATLLADGVPSRFSGSGSGTDYTLTISSLQPEDFATYYCQHYYRTPPTFGQGTKLEIK
notes: Humanized
B2: hCDH6-6-H1L5 (antibody, V domains shown)
VH: B1 VH
VL: DIVMTQSPLSLPVTPGEPASISCRASENIDSYLAWYLQKPGKSPQLLVYSATLLADGVPDRFSGSGSGTDFTLKISRVEAEDVGVYYCQHYYRTPPTFGQGTKLEIK
notes: Humanized
B3: hCDH6-6-H3L3 (antibody, V domains shown)
VH: B1 VH with G42R
VL: B1 VL
notes: Humanized
B4: hCDH6-6-H2L5 (antibody, V domains shown)
VH: B1 VH with M70L
VL: B2 VL
notes: Humanized
B5: hCDH6-6-H1L4 (antibody, V domains shown)
VH: B1 VH
VL: B1 VL with Q45K, T85R
notes: Humanized; also called hCDH6-6-HIL4
B6: hCDH6-6-H3L2 (antibody, V domains shown)
VH: B1 VH with G42R
VL: B1 VL with Q45K
notes: Humanized
B7: hCDH6-6-H2L4 (antibody, V domains shown)
VH: B1 VH with M70L
VL: B1 VL with Q45K, T85R
notes: Humanized
B8: hCDH6-6-H3L1 (antibody, V domains shown)
VH: B1 VH with G42R
VL: B1 VL with Q45K, V48L
notes: Humanized
B9: hCDH6-6-H3L4 (antibody, V domains shown)
VH: B1 VH with G42R
VL: B1 VL with Q45K, T85R
notes: Humanized
B10: hCDH6-6-H2L3 (antibody, V domains shown)
VH: B1 VH with M70L
VL: B1 VL
notes: Humanized
B11: hCDH6-6-H3L5 (antibody, V domains shown)
VH: B1 VH with G42R
VL: B2 VL
notes: Humanized
B12: hCDH6-1-H2L1 (antibody, V domains shown)
VH: EVQLVQSGAEVKKPGSSVKVSCKASGYTFTNYWMHWVRQAPGQGLEWMGDIDPSHSETHYTQKFKDRVTITVDKSTSTAYMELSSLRSEDTAVYYCARGDLGRFDYWGQGTTVTVSS
VL: DIVMTQSPDSLAVSLGERATINCRASESVSIHGTHLMHWYQQKPGQPPKLLIYAASNLESGVPDRFSGSGSETDFTLTISSLQAEDVAVYYCQQSFEDPWTFGGGTKVEIK
notes: Humanized

The first assay deals with T1, his-tagged human CDH6 extracellular …. Nature of the assay: ELISA, coated antigen. The procedure: (§1) Human CDH6 protein (hCDH6 ECD-his, conventionally synthesized), monkey CDH6 protein (cynoCDH6 ECD-his, conventionally synthesized; the cynoCDH6 ECD sequence was derived from Uniprot #A0A2K5TW62 (19-615)), and murine CDH6 protein (mCDH6 ECD-his, conventionally synthesized; the mCDH6 ECD sequence was derived from Uniprot #P97326 (19-615)) were diluted with PBS to a final concentration of 1 μg/mL, and added to a 96-well ELISA plate at 100 μL/well. The plate was incubated at 4° C. overnight. The next day, the plate was washed 3 times with a plate washing solution (PBS+0.01% (v/v) Tween 20), and a blocking buffer (PBS+0.01% (v/v) Tween 20+2% (w/w) BSA) was added for blocking at room temperature for 2 h. The blocking buffer was discarded, and the plate was washed 3 times. The chimeric antibodies were diluted with 1% BSA+PBS (purchased from Cytiva, Cat. No. SH30264.01) and added to the 96-well plate at 50 μL/well. After incubation at 37° C. for 2 h, the plate was washed 3 times with a plate washing solution. […] The plate was incubated at 37° C. for 1 h and then washed 5 times with a plate washing solution. A TMB substrate (purchased from Seracare, Cat. No. 5120-0077) was added at 50 μL/well and incubated at room temperature for 10 min, then a stop solution (1.0 N HCl) was added at 50 μL/well. OD450 nm values were read using a microplate reader (Biotek). Analysis was performed by the GraphPad Prism software, data were fitted, and EC50 values were calculated. The chimeric antibodies tested all had strong binding to the human CDH6 protein, the monkey CDH6 protein, and the murine CDH6 protein.
(§2) According to the above sequences, heavy chain (HC) and light chain (LC) plasmids were constructed (the nucleic acid sequences encoding the VH and VL of the antibodies were recombined into an expression vector carrying a signal peptide (SEQ ID NO: 132, […]) and a heavy chain constant region/light chain constant region sequence to obtain recombinant plasmids expressing VH—CH1-Fc/VL-CL).
The EC50 is the concentration needed to bring the measured effect to its halfway point. As to B1, the EC50 was determined as 31 pM and the “Max OD450” value was 1.99 OD450.
For B2, in that order: 31 pM and 2.06 OD450.
Regarding B3, the EC50 was found to be 31 pM and the “Max OD450” value was 2 OD450.
For B4, it took 26 pM to reach a half-maximal effect (EC50) and the “Max OD450” value came out at 2.1 OD450.
With B5, a half-maximal effect (EC50) was put at 21 pM and the “Max OD450” value was 2.16 OD450.
In the case of B6, the EC50 was 30 pM and the “Max OD450” value worked out at 2.09 OD450.
B7: the EC50 was determined as 29 pM and the “Max OD450” value worked out at 2.14 OD450.
On to B8, for which the concentration giving a half-maximal response (EC50) amounted to 50 pM and the “Max OD450” value was 2.02 OD450.
With B9, it took 41 pM to reach a half-maximal effect (EC50) and the “Max OD450” value amounted to 2.05 OD450.
In the case of B10, the EC50 is 25 pM and the “Max OD450” value amounted to 2.09 OD450.
In the case of B11, the half-maximal effective concentration (EC50) is 43 pM and the “Max OD450” value stood at 1.97 OD450.

The target is the same in a further assay. As to the kind of experiment: ELISA, coated antigen. This is another data set of the same source. The procedure:
as §1
(§3) According to the above sequences, heavy chain (HC) and light chain (LC) plasmids were constructed (the nucleic acid sequences encoding the VH and VL of the antibodies were recombined into an expression vector carrying a signal peptide (SEQ ID NO: 132, […]) and a heavy chain constant region/light chain constant region sequence to obtain recombinant plasmids expressing VH-CH1-Fc/VL-CL).
Consider B12, for which a half-maximal response (EC50) required 46 pM and the “Max OD450” value turned out to be 2.65 OD450.

The next assay has as its target T2, human CDH6 on tumor cells (OVCAR3 …). As to the kind of experiment: FACS, OVCAR3 cells. The procedure: (§4) OVCAR3 cells with high expression of CDH6 and PA-1 cells with moderate expression of CDH6 were used to detect the binding activity of the antibodies to the cells. […] The cells were washed once with PBS, counted, resuspended to 2×10⁶ cells/mL in an FACS buffer (PBS+2% FBS), and then added to a 96-well plate at 50 μL/well. The chimeric antibodies were diluted with FACS buffer (PBS+2% FBS) and added to the 96-well plate at 50 μL/well, and the plate was incubated at 4° C. for 1 h. […] The dilution was added to the 96-well plate at 50 μL/well, and the plate was incubated at 4° C. for 1 h. After the plates were centrifuged and washed 2 times with PBS, the cells were resuspended in an FACS buffer. The mean fluorescence intensity (MFI) was measured using FACS Canton II (BD). Analysis was performed by the GraphPad Prism software, data were fitted, and EC50 values were calculated. The chimeric antibodies tested had strong binding to both OVCAR3 cells and PA-1 cells.
as §2, with “VH—CH1-Fc/VL-CL). According to the expression and purification methods in Example 2, the hCDH6-6 humanized antibodies were obtained, and the binding activity of the humanized antibodies was detected by ELISA and FACS (see 2.2 and 2.3 for the method).” for “VH—CH1-Fc/VL-CL).”
Consider B1, for which the EC50 came out at 630 pM and the “Max MFI” value amounted to 13800 MFI.
B2: the EC50 is 610 pM and the “Max MFI” value was 14200 MFI.
For B3, in that order: 740 pM and 14300 MFI.
In the same order, the values of B4 are 640 pM and 14600 MFI.
As to B5, the response was half-maximal at 640 pM (EC50) and the “Max MFI” value was 14400 MFI.
With B6, the concentration for a half-maximal effect (EC50) is 850 pM and the “Max MFI” value came to 14600 MFI.
For B7, in that order: 620 pM and 14300 MFI.
Regarding B8, the EC50 was 870 pM and the “Max MFI” value was 13700 MFI.
Regarding B9, the EC50 amounted to 700 pM and the “Max MFI” value came to 14500 MFI.
With B10, the 50% effective concentration (EC50) turned out to be 570 pM and the “Max MFI” value was determined as 14100 MFI.
In the same order, the values of B11 are 690 pM and 14200 MFI.

The next assay has the same target. As to the kind of experiment: FACS, OVCAR3 cells. The source holds these as a separate data set. How it is done: as §4
as §3, with “VH-CH1-Fc/VL-CL). According to the expression and purification methods in Example 2, the hCDH6-1 humanized antibodies were obtained, and the binding activity of the humanized antibodies was detected by ELISA and FACS (see 2.2 and 2.3 for the method).” for “VH-CH1-Fc/VL-CL).”
For the molecule B12, it took 228 pM to reach a half-maximal effect (EC50) and the “Max MFI” value was found to be 14500 MFI.
